What was measured:
Test in all cases: pull-down binding Z-score (relative to library population); higher = stronger binding
[1] = test system: TO-3-N3-2 (biotin conjugate); conditions: RNA library: Library-2
Outline: (§1)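 Biotin-conjugated small molecule (100 pmol) on streptavidin beads was incubated with 1 μg of heat-folded Cy5- or Cy3-end-labelled RNA library in phosphate/NaCl/KCl buffer at 25 °C for 60 min. Following three washes, RNA was eluted with hot SDS and hybridised at 55.5 °C for 20 h to a DNA barcode microarray. The binding value is a Z-score computed from the library mean and standard deviation, after subtraction of beads without compound and averaging of barcoded replicate probes with the highest and lowest excluded.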

[2] = test system: TO-3-N3 (biotin conjugate); conditions: RNA library: Library-2
Outline: as §1

[3] = test system: TO-N3-2 (biotin conjugate); conditions: RNA library: Library-2
Outline: as §1

TO-N3 (biotin conjugate) = conditions: RNA library: Library-2
Outline: as §1

[4] = test system: G-clamp-N3 (biotin conjugate); conditions: RNA library: Library-1 (pre-miRNA loops + repeats)
Outline: as §1

Sequence	pull-down binding Z-score [1]	pull-down binding Z-score [2]	pull-down binding Z-score [3]	pull-down binding Z-score (TO-N3 (biotin conjugate))	pull-down binding Z-score [4]
GAAUUCGCUUUAUUUAUGUUGAAUC [hsa-mir-377]	-0.33	-0.514	-0.874	-0.944	-0.856
UUGUUACAUUUUAGGAUUGCUUGCCCCUUGCUCCAAUGGUGCAGGCAGAAGAAAUGCAAACAA [hsa-mir-3973]	-0.0806	-0.0993	1.25	0.135	-0.551
UGCCACCCAGCCCUGCAGAGCCCCUGACUC [hsa-mir-6814]	0.422	0.562	1.44	1.16	-1.17
UUUCUCUUAUGUGAAAAAAAAGAAG [hsa-mir-525]	-0.174	-0.283	-0.745	-0.463	-1.41
GGAAACUGAGACUUUGUAACUAUGUCUCAGUCUCA [hsa-mir-452]	-0.296	-0.179	-0.427	-0.297	-0.74
CGGAAUUCUCCAGAGCCUCUG [hsa-mir-6889]	0.0162	0.188	0.584	0.453	-0.773
GUGUCCUUUCUUCUGAGAGCUGGACAC [hsa-mir-6500]	-0.39	-0.375	-0.336	-0.527	0.00177
GCUAGUGCUGGCUCAAUGCAAUGC [hsa-mir-502]	-0.0546	-0.322	0.637	-0.0527	-0.151
UCAGCUGUAAUACAUGGAUUGGCUGG [hsa-mir-30b]	-0.198	-0.368	-0.252	-0.379	0.592
CUUAAUAGAUUAAUAUUUGUAAG [hsa-mir-506]	-0.335	-0.743	-1.02	-0.877	0.431
GGGAGCGGCCCUCACAUUGAUGGCUCCU [hsa-mir-6727]	-0.052	0.264	0.257	0.313	1.42
UUUAGAUUUAAAUAGUGAUUGUCUAG [hsa-mir-29b-1]	-0.0424	0.267	-0.27	0.194	0.526
CUGUUCAGGACAAUGCCGUUGUACA [hsa-mir-199a-2]	-0.27	-0.355	0.838	0.16	0.637
GGGGGUGGCCGGGGCUGACCCU [hsa-mir-939]	1.8	2.48	2.08	2.56	0.0126
GCAGUCUGCUUUGUGCCAACACUGGGGUGAUGACUGC [hsa-mir-3157]	-0.203	0.502	0.186	0.442	1.23
ACUACUAUAGGCCGCUGGGAAGCAGU [hsa-mir-130b]	0.542	1.04	0.667	1.13	0.987
UAUUCUCUAU [hsa-mir-2054]	-0.276	0.52	-0.297	0.367	-1.01
CAGCCCCGUGUGUUGAGGAAGGAAGG [hsa-mir-940]	0.769	0.485	1.95	1.24	1.54
CCCAUAUGAACAUACAAUGCUAUGGA [hsa-mir-1-2]	-0.224	-0.62	-0.206	-0.569	-0.76
GAUCCUUUGUUCUGGAUC [hsa-mir-7856]	-0.283	0.118	-0.63	-0.266	0.436
ACCAAAACACUCAUCGCGG [hsa-mir-1260a]	0.105	-0.138	-0.00378	-0.188	-0.734
AUUACUUGUGUUCUAUAUAAAGUAUU [hsa-mir-92a-2]	-0.0463	-0.393	-0.831	-0.716	-0.855
GCCGGGGCCUGGCGCUCCUCUACCUUGUCAGGUGACCCAGC [hsa-mir-4274]	-0.179	0.564	0.434	0.538	-1.05
UUGGUCCGUAUGUGUGGUGCCACCGG [hsa-mir-1908]	-0.0706	-0.202	0.948	0.148	-0.147
UCAGCUGUGGAAAGUAAGAAAGCUGG [hsa-mir-30c-2]	1.22	0.97	1.31	1.28	-0.0598

Sequence	pull-down binding Z-score [1]	pull-down binding Z-score [2]	pull-down binding Z-score [3]	pull-down binding Z-score (TO-N3 (biotin conjugate))	pull-down binding Z-score [4]
UGGUGGGAGAGGAGCCCCACUGUGGAAGUCUGACCCCCACA [hsa-mir-6785]	1.01	1.05	1.86	1.64	-0.814
CUGUCCCCUGCCACUGGGUGACC [hsa-mir-7114]	0.144	0.262	0.894	0.471	-0.449
AUGAGAAAUUGGUUUCAA [hsa-mir-8063]	-0.245	-0.191	-0.557	-0.161	1.5
UGGCAAAGGGGUAGCUAAACAAUCUAUGUCUUUGCCA [hsa-mir-3119-1]	0.00332	-0.367	-0.555	-0.525	1.24
UCACAGUUGGUUUCUGACACGUGG [hsa-mir-4535]	-0.0393	0.237	-0.0476	0.305	0.283
GGAACACUAUAUUAAUCAGGUUUCC [hsa-mir-6509]	-0.256	-0.609	-0.706	-0.631	-0.0674
AAUGACUCAUAGUCAA [hsa-mir-4475]	-0.157	0.512	-0.666	0.374	-0.88
CAGUUGUACUGUGGCUG [hsa-mir-1291]	0.154	0.0428	0.0227	0.076	0.37
GACCAAAAGUCAACAUUAAACAACAAAUCUUGGCC [hsa-mir-5708]	-0.109	-0.733	-0.998	-1.02	-1.3
AUGCAUGGCUGGUGGCGGCGUGCAG [hsa-mir-6722]	0.74	0.897	2.13	1.56	0.533
CUUUUAGAGUAAUUGUGAAACUGUUUUUCAAAG [hsa-mir-562]	-0.0695	-0.531	-0.462	-0.769	0.748
GGCAUCUAGCACAGGCGGUAGAUGCU [hsa-mir-4486]	-0.34	-0.546	-0.132	-0.481	0.983
UGAUCAUUAUAUGUAUGAUGAGAUCAU [hsa-mir-4528]	-0.131	-0.532	-0.0235	-0.54	1.33
GCUGGGGACUGGAGAA [hsa-mir-4489]	1.32	2.13	1.64	2.4	2.08
CUUUUUGCUGAUGGAGGGUCUUGCCUCCAUGGGGAUGGCUG [hsa-mir-4502]	0.159	0.828	0.571	0.938	1
GCGGGGUGUGGUGGGGCUGGGGCUGGCCCCCUCCUCACACCUC [hsa-mir-6800]	5.35	4.74	3.96	4.29	1.21
GCCAGACAUGCUCUUGC [hsa-mir-6894]	-0.349	-0.504	0.707	-0.472	-1.34
UGAGCUGUGAUGUUGCUCUCGAGCUGG [hsa-mir-769]	0.336	0.732	1.27	1.02	-0.872
AGGUGGAAAGGGAGCAGGAGCAUCGUCUUUAAGAGGGUCAGGUACCUUUGCUCUUA [hsa-mir-6083]	0.394	-0.0151	1.33	0.724	0.244
CUUUUGUUCAAAUAAAAAUGCAAAAG [hsa-mir-651]	-0.367	-0.729	-1.25	-1.06	-0.842
GUAUACUGAGCUUAUGUAUGCAUCUGCAUAC [hsa-mir-5591]	0.0113	0.357	0.0714	0.39	0.344
CAAGAGGUGUGAGCCACACACACGCCUGGCCUCCUG [hsa-mir-5699]	0.0475	0.771	0.687	0.813	1.28
UCUUGGUGCCACCAUUGAGAACGCCAGGA [hsa-mir-492]	-0.506	-0.644	0.868	-0.279	-1.02
AGUUCAGGAGGUGGCACUGCUGUGUGUGAGCU [hsa-mir-6876]	0.631	0.801	1.27	0.97	1.55
GGUGCAAAGCCUGCCCGCCCC [hsa-mir-5090]	-0.136	-0.134	1.09	0.254	-0.81

Sequence	pull-down binding Z-score [1]	pull-down binding Z-score [2]	pull-down binding Z-score [3]	pull-down binding Z-score (TO-N3 (biotin conjugate))	pull-down binding Z-score [4]
CCCAUUUAAAAUAUGGAA [hsa-mir-548ai]	-0.0892	0.535	-0.0504	0.322	-2.02
AUCAAGAAAAGAUUUGGUGUUCUUGAU [hsa-mir-4782]	-0.112	-0.152	-0.784	-0.513	1.36
CCCUAGGACUUACUUGUGCAGGG [hsa-mir-4253]	-0.403	-0.256	-0.69	-0.303	-0.421
UGAGUGCCGACUGGCGCCUG [hsa-mir-4750]	-0.448	-0.164	0.446	0.0638	-0.352
UUGAGGGACAUGGUUAAUGGAAUUGUCUCA [hsa-mir-342]	0.0248	0.338	0.641	0.413	0.369
UGCUUGACCUGAAUGCUACAAGGCA [hsa-mir-103b-2]	-0.122	-0.324	-0.0962	-0.303	-1.12
GUGGCUAAUCAGCUGAUGGUGCCAC [hsa-mir-4715]	-0.511	-0.0716	-0.545	-0.26	-0.109
AGCUUCUUUAUAAGAAGAGGAAACU [hsa-mir-3923]	0.00803	0.147	-0.5	-0.151	-0.169
GAGCCCUUGCACACCACCAGCCUC [hsa-mir-6845]	0.134	-0.0477	0.822	0.375	-1.73
UGCAGUAUCCGCUGUUGCUGCU [hsa-mir-6132]	-0.341	-0.329	0.672	-0.105	-1.39
UAUGACCAGGCCAUAGUAAACAUCAUA [hsa-mir-4744]	0.312	-0.475	-0.124	-0.247	1.78
GCGGUUUUUGCUAUUGGUUUUAAUGGC [hsa-mir-548au]	-0.189	-0.185	-0.183	-0.205	-0.139
CCUGCAGCCCCCAGGUGGGGGG [hsa-mir-4271]	-0.105	0.75	0.398	0.659	0.67
CACACGCUUUAUUUGUGCCGUUUG [hsa-mir-758]	-0.318	-0.0281	-0.655	-0.164	-0.691
GAUUCUGAUUCAGGGACCAAGAUUC [hsa-mir-544a]	0.354	0.724	0.414	1.04	0.649
AGGCCAUACGUGUUGGAGAUU [hsa-mir-4461]	0.301	0.627	0.79	0.792	0.253
GGGGGCAGGCAGGGGAUUGGCUAAGAACCUGACUCUUGC [hsa-mir-7703]	1.44	2.18	1.75	2.48	-0.0197
UGAAAGGUUUUUUCUCUCA [hsa-mir-4797]	-0.248	-0.332	-0.918	-0.402	0.0116
AGGCUCUGCAAGAUCAACCGAGCA [hsa-mir-330]	0.141	0.196	0.739	0.492	-0.474
GGGACAUUGCGGAGAGGGUCUCACAUUGUCCC [hsa-mir-4646]	0.999	0.894	0.488	0.925	0.248
AAAUAAGCUCCAUAUCAAUGAGAAUUUCAAUGGGAUUAUGUG [hsa-mir-4791]	-0.0328	-0.569	0.0926	-0.415	-1.06
GGAAGACACAUGAGCAGUGCCUCCACUUCACGCCUCUCCC [hsa-mir-6780b]	0.0363	0.265	0.746	0.543	-1.13
CUUGCUGUGACAUGACAAAAAUAAG [hsa-mir-302d]	0.294	0.449	-0.107	0.357	-0.853

From the supplement of paper PMC11865577
